Target: vitreal Sema3A of STZ-treated diabetic mice (endogenous mouse Semaphorin3A) (mouse) (UniProt O08665)
Assay: cell-based or functional assay

Chain of UniProt O08665 (O08665 21-772 limits assumed): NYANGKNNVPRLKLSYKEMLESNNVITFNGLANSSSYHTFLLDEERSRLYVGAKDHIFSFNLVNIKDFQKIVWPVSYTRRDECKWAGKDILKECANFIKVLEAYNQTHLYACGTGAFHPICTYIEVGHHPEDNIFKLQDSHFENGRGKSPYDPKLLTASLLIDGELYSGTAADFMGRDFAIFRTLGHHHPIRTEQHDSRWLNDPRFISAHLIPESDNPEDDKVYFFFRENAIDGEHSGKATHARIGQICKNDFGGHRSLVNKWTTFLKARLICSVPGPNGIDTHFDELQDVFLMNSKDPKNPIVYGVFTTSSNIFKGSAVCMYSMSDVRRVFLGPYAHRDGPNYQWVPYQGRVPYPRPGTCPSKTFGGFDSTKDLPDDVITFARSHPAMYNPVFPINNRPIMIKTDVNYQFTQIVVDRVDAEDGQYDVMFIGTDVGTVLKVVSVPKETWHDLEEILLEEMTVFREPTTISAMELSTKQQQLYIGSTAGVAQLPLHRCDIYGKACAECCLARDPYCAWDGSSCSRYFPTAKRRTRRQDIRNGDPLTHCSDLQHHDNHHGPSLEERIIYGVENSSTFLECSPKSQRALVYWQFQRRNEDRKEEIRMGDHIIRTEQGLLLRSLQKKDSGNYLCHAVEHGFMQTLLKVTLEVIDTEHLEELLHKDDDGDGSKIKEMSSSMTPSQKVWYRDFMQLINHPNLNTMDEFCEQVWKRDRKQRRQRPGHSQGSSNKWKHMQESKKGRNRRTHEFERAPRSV

reduction in retinal permeability (Evans Blue permeation) at week 8 of diabetes, after intravitreal injection of rNrp-1 in STZ mice at weeks 6 and 7: 48.1%
Substance: recombinant mouse soluble Neuropilin-1 (rmNRP1) (from UniProt P97333 22-856) (receptor)

From US20180030455A1
